Measured values: patent US20250154268A1 (NONA BIOSCIENCES SUZHOU, published 2025)
Like-named read-outs stand apart in the source and are kept apart here.

How the values were obtained:
[1] = target: T1, human CD25 (human, UniProt P01589 22-272); assay: flow cytometry, Karpas299 cells
T1 construct: whole, on cells; Always presented on cells; also called huCD25; IL2Rα
T1 sequence (looked up): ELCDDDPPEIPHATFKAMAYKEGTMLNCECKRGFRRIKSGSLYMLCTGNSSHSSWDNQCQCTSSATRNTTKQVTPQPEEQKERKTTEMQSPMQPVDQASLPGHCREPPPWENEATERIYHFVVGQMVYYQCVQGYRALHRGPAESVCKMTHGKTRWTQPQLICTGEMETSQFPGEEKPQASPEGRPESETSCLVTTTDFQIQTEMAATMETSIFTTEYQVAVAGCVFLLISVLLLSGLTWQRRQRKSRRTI
Protocol: (§1) This example was intended to study the in-vitro binding activity of H2L2 monoclonal antibodies against human CD25 to human/cynomolgus monkey CD25. […] Briefly, the CHOK1-huCD25 cells and HEK293-cynoCD25 cells were digested, the SU-DHL-1 cells, Karpas299 cells, Treg cells and Teff cells were collected, and the cells were resuspended in PBS containing 2% BSA. The cells were adjusted to a cell density of 1×10⁶ cells/mL, respectively. […] The cells were incubated at 4° C. for 1 hour in the dark. After the incubation, the cells were rinsed twice by adding pre-chilled PBS containing 2% BSA at 100 μL/well, and centrifuged at 500 g at 4° C. for 5 minutes, and the supernatant was discarded. […] The cells were washed twice by adding pre-chilled PBS containing 2% BSA at 100 μL/well, and centrifuged at 500 g at 4° C. for 5 minutes, and the supernatant was discarded. Finally, the cells were resuspended in pre-chilled PBS containing 2% BSA at 200 μL/well, and the fluorescence signal values were read using a BD CantoII flow cytometer.

[2] = target: T1, human CD25; assay: flow cytometry, SU-DHL-1 cells
Protocol: (§2) Briefly, the CHOK1-huCD25 cells and HEK293-cynoCD25 cells were digested, the SU-DHL-1 cells, Karpas299 cells, Treg cells and Teff cells were collected, and the cells were resuspended in PBS containing 2% BSA. The cells were adjusted to a cell density of 1×10⁶ cells/mL, respectively. […] The cells were incubated at 4° C. for 1 hour in the dark. After the incubation, the cells were rinsed twice by adding pre-chilled PBS containing 2% BSA at 100 μL/well, and centrifuged at 500 g at 4° C. for 5 minutes, and the supernatant was discarded. […] The cells were washed twice by adding pre-chilled PBS containing 2% BSA at 100 μL/well, and centrifuged at 500 g at 4° C. for 5 minutes, and the supernatant was discarded. Finally, the cells were resuspended in pre-chilled PBS containing 2% BSA at 200 μL/well, and the fluorescence signal values were read using a BD CantoII flow cytometer.

[3] = target: T1, human CD25; assay: flow cytometry, CHOK1-huCD25 cells
Protocol: as §1

[4] = target: T1, human CD25; assay: flow cytometry, SU-DHL-1 cells; remark: listed apart in the source
Protocol: as §2

[5] = target: T1, human CD25; assay: flow cytometry, Karpas299 cells; remark: listed apart in the source
Protocol: as §1

[6] = target: T2, cynomolgus monkey CD25 (cynomolgus monkey, UniProt H6WS54 22-272); assay: flow cytometry, HEK293-cynoCD25 cells
T2 construct: whole, on cells; also called cynoCD25
T2 sequence: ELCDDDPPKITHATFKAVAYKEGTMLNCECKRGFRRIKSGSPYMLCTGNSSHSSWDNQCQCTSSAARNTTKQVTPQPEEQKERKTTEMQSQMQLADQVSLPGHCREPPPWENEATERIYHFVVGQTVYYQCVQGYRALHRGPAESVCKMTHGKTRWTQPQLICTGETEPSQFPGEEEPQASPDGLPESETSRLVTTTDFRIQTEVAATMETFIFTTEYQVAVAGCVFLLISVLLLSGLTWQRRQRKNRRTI
Protocol: as §1

[7] = target: T1, human CD25; assay: flow cytometry, Karpas299 cells; remark: listed apart in the source
Protocol: as §1

[8] = target: T1, human CD25; assay: flow cytometry, SU-DHL-1 cells; remark: listed apart in the source
Protocol: as §2

[9] = target: T2, cynomolgus monkey CD25; assay: flow cytometry, HEK293-cynoCD25 cells; remark: listed apart in the source
Protocol: as §2

[10] = target: T1, human CD25; assay: flow cytometry, Karpas299 cells; remark: listed apart in the source
[11] = target: T1, human CD25; assay: flow cytometry, Karpas299 cells; remark: listed apart in the source
Protocol: as §1

[12] = target: T1, human CD25; assay: flow cytometry, Karpas299 cells; remark: listed apart in the source
Protocol: as §2

[13] = target: T1, human CD25; assay: flow cytometry, SU-DHL-1 cells; remark: listed apart in the source
Protocol: as §2

[14] = target: T1, human CD25; assay: flow cytometry, SU-DHL-1 cells; remark: listed apart in the source
Protocol: as §2

[15] = target: T1, human CD25; assay: flow cytometry, SU-DHL-1 cells; remark: listed apart in the source
Protocol: as §2

[16] = target: T2, cynomolgus monkey CD25; assay: flow cytometry, HEK293-cynoCD25 cells; remark: listed apart in the source
Protocol: as §2

[17] = target: T1, human CD25; assay: flow cytometry, SU-DHL-1 cells; remark: listed apart in the source
Protocol: as §2

[18] = target: T1, human CD25; assay: flow cytometry, Karpas299 cells; remark: listed apart in the source
[19] = target: T1, human CD25; assay: flow cytometry, Karpas299 cells; remark: listed apart in the source
[20] = target: T1, human CD25; assay: flow cytometry, SU-DHL-1 cells; remark: listed apart in the source
Protocol: as §2

[21] = target: T1, human CD25; assay: flow cytometry, CHOK1-huCD25 cells; remark: listed apart in the source
Protocol: as §2

[22] = target: T2, cynomolgus monkey CD25; assay: flow cytometry, HEK293-cynoCD25 cells; remark: listed apart in the source
Protocol: as §1

[23] = target: T2, cynomolgus monkey CD25; assay: flow cytometry, HEK293-cynoCD25 cells; remark: listed apart in the source
Protocol: as §2

[24] = target: T1, human CD25; assay: flow cytometry, Karpas299 cells; remark: listed apart in the source
Protocol: as §2

[25] = target: T1, human CD25; assay: flow cytometry, SU-DHL-1 cells; remark: listed apart in the source
Protocol: as §2

[26] = target: T2, cynomolgus monkey CD25; assay: flow cytometry, HEK293-cynoCD25 cells; remark: listed apart in the source
Protocol: as §2

B1: PR008015 (antibody, human IgG1, kappa, V domains shown)
VH: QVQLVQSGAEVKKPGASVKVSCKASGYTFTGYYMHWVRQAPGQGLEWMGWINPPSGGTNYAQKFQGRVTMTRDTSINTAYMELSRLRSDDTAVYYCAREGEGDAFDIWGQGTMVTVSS
VL: DFQMTQSPSTLSASVGDRVTITCRASQSISSWLAWYQQKPGKAPKLLIYEASSLKSGVPSRFSGSESGTEFTLTISSLQPDDFATYYCHQYMSYSTFGQGTKVEIKR
notes: PTM variant of PR006931 (VH:N54P, S60Y); human IgG1
EC50 [1]: 20 nM
EC50 [2]: 0.85 nM

B2: PR005497 (antibody, human IgG1, kappa, V domains shown)
VH: QVQLQQSGPGLVKPSQTLSLTCAISGDSVSNNNAAWNWIRQSPSRGLEWLGRTHYRSDRSKWYNDYAVSVKSRITINSDTFKNQFSLQLNPVTPEDTAVYYCARDWDHDAFDIWGQGTMVTVSS
VL: DIQMTQSPSTLSASVGDRVTITCRASQSISGWLAWYQQKPGKAPKLLIYKASSLETGVPSRFSGSGSGTEFTLTISSLQPDDFATYYCLQYNGYSTFGGGTKVEIKR
notes: Fully human recombinant IgG1, kappa; also called 245E10F1
EC50 [3]: 2.73 nM
EC50 [4]: 2.4 nM
EC50 [5]: 2.81 nM
EC50 [6]: 6.4 nM

B3: PR006110 (antibody, V domains shown)
VH: QVQLQESGPGLVKPSGTLSLTCAVSGGSISSSNYWSWVRQPPGKGLEWIGEIYHSGSTNYNPSLKSRVTISLDKSKNQFSLKLSSVTAADTAVYYCARDRNYGSGNYPHYYHYYGMDVWGQGTTVTVSS
VL: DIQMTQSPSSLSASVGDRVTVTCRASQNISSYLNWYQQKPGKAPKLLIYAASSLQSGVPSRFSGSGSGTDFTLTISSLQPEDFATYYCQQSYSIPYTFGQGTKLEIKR
notes: Fully human recombinant IgG1, kappa; also called 307B8G6
EC50 [7]: 1.73 nM
EC50 [8]: 1.95 nM

B4: RG6292 (antibody, human IgG1, kappa, V domains shown)
VH: QVQLVQSGAEVKKPGSSVKVSCKASGGTFSSLAISWVRQAPGQGLEWMGGIIPIFGTANYAQKFQGRVTITADESTSTAYMELSSLRSEDTAVYYCARGGSVSGTLVDFDIWGQGTMVTVSS
VL: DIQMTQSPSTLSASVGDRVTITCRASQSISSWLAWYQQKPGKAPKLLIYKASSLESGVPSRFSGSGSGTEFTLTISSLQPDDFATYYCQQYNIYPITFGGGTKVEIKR
notes: also called PR004639; PR004639AF
EC50 [9]: 40 nM
Maximum MFI [9]: 2660 MFI
EC50 [10]: 5 nM
Maximum MFI [10]: 9560 MFI
EC50 [11]: 3.41 nM
EC50 [12]: 30 nM
Maximum MFI [12]: 11800 MFI
EC50 [7]: 11.8 nM
EC50 [13]: 3.87 nM
Maximum MFI [13]: 32900 MFI
EC50 [14]: 3.87 nM
Maximum MFI [14]: 32900 MFI
EC50 [3]: 45.8 nM
EC50 [1]: 5 nM
EC50 [15]: 1.4 nM
Maximum MFI [15]: 30700 MFI
EC50 [16]: 4.33 nM
Maximum MFI [16]: 125000 MFI
EC50 [17]: 1.57 nM
Maximum MFI [17]: 28000 MFI
EC50 [18]: 5 nM
Maximum MFI [18]: 10100 MFI
EC50 [4]: 1.35 nM
EC50 [2]: 1.28 nM
EC50 [19]: 30 nM
Maximum MFI [19]: 11800 MFI
EC50 [20]: 0.95 nM
EC50 [21]: 40 nM
Maximum MFI [21]: 2660 MFI
EC50 [22]: 80.8 nM
EC50 [23]: 20.9 nM
Maximum MFI [23]: 89700 MFI
EC50 [5]: 2.22 nM
EC50 [24]: 14.3 nM
Maximum MFI [24]: 20900 MFI
EC50 [6]: 6.75 nM
EC50 [8]: 1.29 nM
EC50 [25]: 1.28 nM
Maximum MFI [25]: 29700 MFI
EC50 [26]: 80.8 nM
Maximum MFI [26]: 8590 MFI

B5: PR008197 (antibody, human IgG1, kappa, V domains shown)
VH: QVQLQGSGPGLVKPSGTLSLTCAVSPGSISSSNWWNWVRQPPGKGLEWIGEIYHRGSTNYNPSLKSRVTISVDKSKNQFSLKLSSVTAADTAVYYCTHYYYDSSGYYYGYWGQGTLVTVSS
VL: DIVMTQSPLSLPVTPGEPASISCRSSQSLLHRDVYNYVDWYLQKPGQSPQLLIYLGSNRASGVPDRFSGSGSGTDFTLKISRVEAEDVGVYYCLQALQTPLTFGGGTKVEIKR
notes: PTM variant of PR005436 (VH:D26P); human IgG1
EC50 [11]: 8 nM
EC50 [20]: 1.55 nM
EC50 [22]: 2.25 nM
